Patent US20090068174A1, “THERAPEUTIC ALKALINE PROTEASE COMPOSITIONS AND USE IN FACILITATING THE TRANSPORT OF AGENTS ACROSS THE GASTROINTESTINAL MUCOSAL LINING” (Kansas University Medical Center Research Institute, Inc., priority 2007, published 2009)

B1: 26 kDa Protease: A. oryzae protease cloned recently by Novozyme, labeled the 26 kDa protease, SEQ ID NO: 3 (protein, listed as Aspergillus oryzae)
chain: HASADAWASSKAISSTSSPSSFKMRFISVSSLLLALAPALNAVPVEVAGSAQGLDVTLSQVGNTRIKAWKNTGSEDVTFVHLNFFKDAAPVQKVSLFRNATEVQFQGIKQRLITEGLSDDALTTLAPGATIEDEFDIASTSDLSEGGTITINSNGLVPITTDNKVTGYIPFTSNELSIDVDAAEAASVTQAVKILERRTKVTSCSGSRLSALQTALRNTVSLARAAATAAQSGSSSRFQEYFKTTSSSTRSTVAARLNAVANEAASTSSGSTTYYCSDVYGYCSSNVLAYTLPSYNIIANCDLYYSYLPALTSTCHAQDQATTTLHEFTHAPGVYSPGTDDLGYGYSAATALSASQALLNADTYALFANAVNLNC
B2: Alkaline Protease: Aspergillus oryzae alkaline protease (oryzin), SEQ ID NO: 2, purified from the protease powder of Example 1 (protein, listed as Aspergillus oryzae)
chain: MQSIKRTLLLLGAILPAVLGAPVQETRRAAEKLPGKYIVTFKPGIDEAKIQEHTTWATNIHQRSLERRGATGGDLPVGIERNYKINKFAAYAGSFDDATIEEIRKNEDVAYVEEDQIYYLDGLTTQKSAPWGLGSISHKGQQSTDYIYDTSAGEGTYAYVVDSGVNVDHEEFEGRASKAYNAAGGQHVDSIGHGTHVSGTIAGKTYGIAKKASILSVKVFQGESSSTSVILDGFNWAANDIVSKKRTSKAAINMSLGGGYSKAFNDAVENAFEQGVLSVVAAGNENSDAGQTSPASAPDAITVAAIQKSNNRASFSNFGKVVDVFAPGQDILSAWIGSSSATNTISGTSMATPHIVGLSLYLAALENLDGPAAVTKRIKELATKDWKDVKGSPNLLAYNGNA

Assays:
[1] = Hydrolysis of D-val-leu-lys-pNA (kinetic absorbance assay); type: biochemical; conditions: 20 mM Tris-HCl buffer, pH 7, absorbance at 405 nm
Method: Specific activity of the purified enzymes was determined by measuring hydrolysis of protamine sulfate and D-val-leu-lys-pNA. For the former, enzyme-substrate mixtures were prepared in 20 mM Tris-HCl, pH 7 or 8, and incubated for 30 min at 37° C. […] Hydrolysis of D-val-leu-lys-pNA in 20 mM Tris-HCl buffer, pH 7, was determined by measuring absorbance at 405 nm wavelength every 10 sec over 10 min and calculating the change in absorbance (mOD units) per min per μg protein.

[2] = biological target: T1, human TNF-α (Homo sapiens, UniProt P01375); experiment: Human TNF-α hydrolysis (Western blotting); type: biochemical; conditions: 50 ng cytokine with 2.5, 5, 10 ng protease, overnight at 37° C., Western blot
Method: Effects of the purified A. oryzae proteases on human recombinant TNF-α: (A) protease powder prepared according to Example 1 (preparation); (B) alkaline protease; (C) 26 kDa protease; and (D) deuterolysin. 50 ng quantities of TNF-α were incubated at 37° C. for 18 hours with the indicated quantities of protease powder prepared according to Example 1, alkaline protease, 26 kDa protease or deuterolysin. Western blotting was then used to determine substrate specificity. C=control, buffer-treated TNF-α.
Human TNF-α is cleaved and inactivated by Aspergillus oryzae alkaline protease. Purified cytokine (50 ng) was first combined with the following amounts [2.5, 5, and 10 ng] of protease powder prepared according to Example 1 (preparation), as well as alkaline protease, 26 kDa protease, and deuterolysin prepared according to Example 2. Each mixture was incubated overnight at 37° C. and examined by Western blotting for evidence of proteolysis. […] Because the antibody used in this Western blot was specific for the carboxyl terminus of human TNF-α, these enzymes cleaved the cytokine at the amino terminus yielding a smaller peptide that retained the C-terminal epitope.

[3] = biological target: T1, human TNF-α; experiment: Bioactivity of protease-treated human TNF-α in the C2C12 cell assay (nitrite); type: cell-based; parameters: key to Inactivation of Human TNF-α: +: Indicates that the protease inactivated the cytokine; ^a: Cleavage of the cytokine occurred without inactivation; conditions: for Effect on bioactivity of human TNF-α: C2C12 cells costimulated with mouse IFN-γ, nitrite
Method: Effects of purified A. oryzae proteases on the bioactivity of human TNF-α (A) protease powder prepared according to Example 1 (preparation); (B) alkaline protease; (C) 26 kDa protease; and (D) deuterolysin. 50 ng quantities of TNF-α were incubated at 37° C. for 24 hours with the indicated quantities (∘=buffer alone; […]=5 ng; ▪=10 ng) of: protease powder prepared according to Example 1 (preparation); alkaline protease; 26 kDa protease; and deuterolysin. The reactions were then stopped by addition of FBS and samples were added to C2C12 cells that had been costimulated with mouse IFN-γ. Twenty-four hours later, nitrite was measured in culture fluids.
Protease-treated human TNF-α was then tested for its bioactivity in the C2C12 cell assay. […] (FIG. 12A-D)
(§1) The protease powder prepared according to Example 1 inactivates mouse recombinant TNF-α by limited proteolysis. (FIG. 16 A-B) This property was established by measuring the loss of activity of TNF-α in a bioassay in which the cytokine was used to coactivate mouse myoblast C2C12 cells for the production of NO by transcriptional activation of the inducible NO synthase (iNOS) gene. The assay can be used to measure either TNF-α or IFN-γ activity by adding test samples containing one of the cytokines to cells stimulated with an excess of the other cytokine. Nitrite is a stable endproduct of NO produced by the cells. […] (FIG. 16A-B).

[4] = biological target: T2, mouse recombinant TNF-α (Mus musculus, UniProt P06804); experiment: Bioactivity of protease-treated mouse TNF-α in the C2C12 cell bioassay (nitrite); type: cell-based; parameters: key to Inactivation of Mouse TNF-α: +: Indicates that the protease inactivated the cytokine; ^a: Cleavage of the cytokine occurred without inactivation; conditions: for Effect on bioactivity of mouse TNF-α: C2C12 cells, NO (nitrite) production
T2 sequence (P06804 80-235 limits assumed): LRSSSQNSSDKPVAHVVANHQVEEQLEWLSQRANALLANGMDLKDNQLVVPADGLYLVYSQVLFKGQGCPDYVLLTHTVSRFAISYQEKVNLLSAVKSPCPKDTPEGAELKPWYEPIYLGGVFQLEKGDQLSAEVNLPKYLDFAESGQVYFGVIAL
Method: Effects of three purified A. oryzae proteases on the bioactivity of mouse TNF-α (A) protease powder prepared according to Example 1 (preparation); (B) alkaline protease; (C) 26 kDa protease; and (D) deuterolysin. 50 ng quantities of TNF-α were incubated at 37° C. for 24 hours with the indicated quantities of the protease powder prepared according to Example 1 or one of the three purified proteases. The reactions were then stopped by addition of FBS and samples were added to C2C12 cells that had been costimulated with mouse IFN-γ. Twenty-four hours later, nitrite was measured in culture fluids.
The protease powder prepared according to Example 1 inactivates mouse recombinant TNF-α. 50 ng of the cytokine was treated for 24 hours with either 0 (□); 5 (∘); or 10 ng ([…]) of either Pseudomonas elastase (A) or protease powder prepared according to Example 1 (B). Then the residual bioactivity of the cytokine was measured by its ability to co-activate mouse C2C12 myoblast cells in the presence of excess IFN-γ for the production of NO (nitrite).
as §1
The three purified proteases were then compared for their ability to inactivate mouse TNF-α using the C2C12 cell bioassay.

[5] = biological target: T3, mouse recombinant IFN-γ (Mus musculus, UniProt P01580); experiment: Bioactivity of protease-treated mouse IFN-γ (NO production by C2C12 cells); type: cell-based
T3 sequence (P01580 23-155): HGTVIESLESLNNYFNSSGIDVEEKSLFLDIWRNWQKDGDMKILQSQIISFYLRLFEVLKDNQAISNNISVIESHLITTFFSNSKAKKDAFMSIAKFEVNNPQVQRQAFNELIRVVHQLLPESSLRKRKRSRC
Method: Effects of three purified A. oryzae proteases on the bioactivity of mouse IFN-γ: (A) protease powder prepared according to Example 1 (preparation); (B) alkaline protease; (C) 26 kDa protease; and (D) deuterolysin. 50 ng quantities of mouse recombinant IFN-γ were incubated for 24 hours at 37° C. with either buffer or 2.5-10 ng of the indicated protease: (∘) Buffer; (▴) 2.5 ng; ([…]) 5 ng; (▪) 10 ng. IFN-γ bioactivity was determined as conduction of NO production by C2C12 cells.
To evaluate the specificity of this effect, the three Aspergillus oryzae proteases were tested for their ability to inactivate mouse IFN-γ, and a different pattern was seen. […] This was an unexpected finding given the ability of alkaline protease to cause partial proteolysis of IFN-γ.

[6] = Table 4, cited from earlier work

T1 sequence (P01375 77-233 limits assumed): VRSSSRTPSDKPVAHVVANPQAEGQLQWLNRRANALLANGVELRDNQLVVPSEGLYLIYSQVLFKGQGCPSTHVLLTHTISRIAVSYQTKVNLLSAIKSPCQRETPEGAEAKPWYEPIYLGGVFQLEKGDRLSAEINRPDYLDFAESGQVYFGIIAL

Molecule	Specific activity, Val-leu-lys-pNA [1] [mOD/min/μg protein]	Cleavage of human TNF-α [2]	Effect on bioactivity of human TNF-α [3]	Effect on bioactivity of mouse TNF-α [4]	Effect on bioactivity of mouse IFN-γ [5]	pI [6]	Inactivation of Human TNF-α ([3]; Table 7 summary)	Inactivation of Mouse TNF-α ([4]; Table 7 summary)	Heat stability ([6]; deuterolysin for 10 min, alkaline protease for 3 h)
B1	2.1	to a lesser extent	did not significantly alter the biological activity of the cytokine	devoid of such activity	primarily associated with the 26 kDa protease	6.72	–	–	–
B2	116.7	produced a similar pattern of cleavage	selectively inactivated human TNF-α	dose-dependent inactivation of mouse TNF-α	did not significantly affect the activity of mouse IFN-γ	6.53	+	+	Stable at 37 °C
